Test [1] has as its target huTIM-3/his (human) (UniProt Q8TDQ0). As to the kind of experiment: Biacore sequential injection; value belongs to the 2nd antibody huIgG1; competitor (1st antibody) huIgG1. Background: In SPR one partner is held on a chip, and binding of the other changes the refractive index at the surface.
The target is the same in test [2]. In words: Biacore sequential injection; value belongs to the 2nd antibody huIgG1; competitor (1st antibody) ABTIM3-hum03.
Test [3] has the same target. As to the kind of experiment: Biacore sequential injection; value belongs to the 2nd antibody huIgG1; competitor (1st antibody) ABTIM3-hum21.
Test [4] shares this target. In words: Biacore, hTIM-3/his captured by anti-His antibody on a CM5 chip; first injection.
The target is the same in test [5]. As to the kind of experiment: Biacore sequential injection; value belongs to the 2nd antibody huIgG1; competitor (1st antibody) ABTIM3-hum11.

As for huIgG1 (antibody), the change in RU (2nd antibody injection) with huTIM-3/his (human) [1] was found to be 3.6 RU; in the test with huTIM-3/his (human) [2], 4.5 RU; with huTIM-3/his (human) [3], 4.5 RU; with huTIM-3/his (human) [5] it was 3.8 RU. Also, the change in RU (1st antibody injection) with huTIM-3/his (human) [4] was 0.27 RU.

(Values after patent US20220133889A1.)
